Source: patent publication US20090291088A1 (Biogen, published 2009)

What was measured:
[1] = molecular target: T1, hIGF-1R-Fc mutant SD203 (N254A) (human, UniProt P08069 31-933); test: SPR, antibody over captured mutant
T1 construct: not shown: C-terminal human IgG1-Fc tag
Protocol: (§1) Surface plasmon resonance (SPR) experiments were performed on a Biacore 3000 instrument set to 25° C. […] The antibody sensorchip surfaces were prepared by injecting each antibody (diluted 100 μg/mL in 10 mM Acetate, pH 4.0) over EDC/NHS-activated sensorchip surfaces according to the standard protocol of the manufacturer. […] Both hIGF-1R-Fc and mIGF-1R-Fc proteins oligomerize due to the incorporation of two separate homodimeric regions (IGF-1R and IgG1-Fc). […] After, completion of the receptor-Fc loading step, flow rates were elevated to 5 μl/min. […] Dissociation was measured for 7 minutes after the antibody injections were complete. Finally, the flow rate was elevated to 30 μL/min and the chip surfaces were regenerated by 2×10 μL injections of 0.1 M glycine, pH 2.

[2] = molecular target: T2, hIGF-1R-Fc mutant SD207 (G265Y) (human, UniProt P08069 31-933); test: SPR, antibody over captured mutant
T2 construct: not shown: C-terminal human IgG1-Fc tag
Protocol: as §1

human IGF-1R(1-903)-Fc [3] = molecular target: T3, human IGF-1R(1-903)-Fc (human, UniProt P08069 31-933); test: ELISA on hIGF-1R-Fc, competitor Zenon-labelled αIR3
T3 construct: Made by Biogen Idec; Multimerises through IGF-1R and Fc; also called hIGF-1R-Fc; IGF-1R-Fc; not shown: C-terminal human IgG1-Fc tag

human IGF-1R(1-903)-Fc [4] = molecular target: T3, human IGF-1R(1-903)-Fc; test: ELISA on hIGF-1R-Fc, competitor biotinylated M14-G11
[5] = molecular target: T4, hIGF-1R-Fc mutant SD012 (E303G) (human, UniProt P08069 31-933); test: SPR, Fab over captured SD012
T4 construct: not shown: C-terminal human IgG1-Fc tag
Protocol: as §1

[6] = molecular target: T5, hIGF-1R-Fc mutant SD201 (D248A) (human, UniProt P08069 31-933); test: SPR, Fab over captured mutant
T5 construct: not shown: C-terminal human IgG1-Fc tag

[7] = molecular target: T6, hIGF-1R-Fc mutant SD202 (D250S) (human, UniProt P08069 31-933); test: SPR, Fab over captured mutant
T6 construct: not shown: C-terminal human IgG1-Fc tag

[8] = molecular target: T7, human IGF-1R expressed on cells (human, UniProt P08069 31-1367); test: flow cytometry, MCF-7 cells
T7 construct: On MCF-7 tumor cells or on 3T3/CHO transfectants; precursor is processed into alpha and beta subunits; Signal peptide 1-30 left out as stated; also called wild type IGF-1R; IGF-1R 3T3
Protocol: The ability of Fabs to bind to the wild type IGF-1R was determined by flowcytometry using MCF-7 tumor cell line.
MCF-7 cells (Human Breast Adenocarcinoma from NCI) were split 24 hours prior to the setup of the assay to obtain 70% confluent monolayer. Routinely, MCF-7 cell line was maintained within 20 passages. Cells were lifted with cell dissociation buffer (Gibco catalog #13151-014), counted, washed and adjusted to 1×10⁶ cells/ml and one ml of cells were then added to each tube (12×75 mm tube Falcon catalog# 352054). Cells were pelleted and supernatant removed by centrifugation at 1200 rpm for 5 min and 100 μl of diluted antibodies were then added to the cell pellet. Purified Fabs were tested at a starting concentration of either 210 or 60 μg/ml with 1:3 dilutions in FACS buffer, down to 0.001 μg/ml. FACS buffer used throughout the assay was PBS (without Ca++/Mg++) containing 1% BSA (Sigma catalog# A-7906; Sigma-Aldrich Corp. (St. Louis, Mo., USA)) and 0.1% Sodium Azide (Sigma catalog #S2002). […] Samples were allowed to incubate on ice for 1 hour and 15 minutes then were washed with 2 ml FACS buffer and centrifuged at 1200 rpm for 5 minutes at 4° C. The supernatant was aspirated and 100 μl of the secondary detection antibody was added to each corresponding tube in FACS buffer. Samples were then incubated for 30 minutes on ice, in the dark. Cells were washed as described above, then, re-suspended in […] FACS buffer per tube/sample.
Cells were stained for live cell determination with Propidium Iodide staining solution (PI for dead cell exclusion; BD Pharmingen catalog# 51-66211E or 556463; use at 1:500 final in FACS buffer). Samples were run on the FACSCalibur instrument (Becton Dickinson) with 10,000 live events collected per sample.

[9] = molecular target: T8, human IGF-1R(1-902)-His10 (human, UniProt P08069 31-932); test: SPR, Fab over captured IGF-1R-10His
T8 construct: Cy5-labelled in tr-FRET; also called hIGF-1R-His10; IGF-1R-His
Protocol: All surface plasmon resonance (SPR) experiments were performed on a Biacore 3000 set to 25° C. using HBS-EP (Biacore, Cat. No. BR-1001-88) as the running buffer. A biotin-labeled anti-HisTag antibody (biotin-PENTA-His, Qiagen Cat. No. 34440) was immobilized to saturation on a Biacore SA chip (Cat. No. BR-1000-32) surface by injection at 500 nM in HBS-EP buffer. […] Subsequent to IGF-1R injections, flow rates were increased to 20 μL/min. A second, 130 μL injection of anti-IGF-1R antibody or Fab was performed to investigate interactions with the receptor. Each antibody and Fab was serially diluted from 64 nM to 0.5 nM to obtain concentration dependent kinetic binding curves. Each injection series was regenerated using 3×10 μL injections of 10 mM Acetate, pH 4.0, at 20 μL/min. Each curve was double referenced using (1) data obtained from a streptavidin surface devoid of IGF-1R and (2) data from a primary injection of IGF-1R followed by a secondary injection of HBS-EP buffer. The concentration series for each antibody and Fab was fit to the 1:1 binding model provided within the BiaEvaluation software of the manufacturer.
To obtain discrete affinities, Fab fragments of each antibody were generated using papain digestion as described above.

[10] = molecular target: T9, hIGF-1R-Fc mutant SD015 (H464E) (human, UniProt P08069 31-933); test: SPR, Fab over captured SD015
T9 construct: not shown: C-terminal human IgG1-Fc tag

[11] = molecular target: T10, hIGF-1R-Fc mutant SD008 (S257F) (human, UniProt P08069 31-933); test: SPR, Fab over captured SD008
T10 construct: not shown: C-terminal human IgG1-Fc tag
Protocol: as §1

B1: P1E2 (chimeric antibody) (antibody, human IgG4, V domains shown)
VH: QVQLQQPGAELVKPGASVKLSCKASGYTFTSYWMHWVKQRPGQGLEWIGEINPTYGRSNYNEKFKSKATLTVDKSSSTAYMQLSSLTSEDSAVYYCARLVRLRYFDVWGAGTTVTVSS
VL: DIVMTQAAFSNPVTLGTSASISCRSSKSLLHSNGITYLYWYLQKPGQSPQLLIYQMSNLASGVPDRFSSSGSGTDFTLRISRVEAEDVGVYYCAQNLELPYTFGGGTKLEIK
notes: also called chimeric antibody P1E2
[1]
  binding result: no binding (tested: 30 nM)
[2]
  binding result: no binding (tested: 30 nM)
Human IGF-1R(1-903)-Fc [3]
  percent competition (relative to self-competition): 90 to 100%
Human IGF-1R(1-903)-Fc [4]
  percent competition (relative to self-competition): 90 to 100%

B2: M14-G11 Fab (Fab, V domains shown)
VH: EVQLLESGGGLVQPGGSLRLSCAASGFTFSNYPMYWVRQAPGKGLEWVSRISSSGGRTVYADSVKGRFTISRDNSKNTLYLQMNSLRAEDTAVYYCARDRWSRSAAEYGLGGYWGQGTLVTVSS
VL: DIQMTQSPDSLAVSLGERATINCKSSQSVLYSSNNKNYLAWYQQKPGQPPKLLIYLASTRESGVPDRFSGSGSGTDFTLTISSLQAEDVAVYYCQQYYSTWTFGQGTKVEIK
notes: Human phage Fab, kappa
[5]
  fold loss in affinity against wild-type: ~3 fold
[6]
  binding result: no binding (tested: 30 nM)
[7]
  binding result: no binding (tested: 30 nM)
[8]
  EC50: 39.8 nM
[9]
  Kd: 4 nM
  koff: 0.0012 s⁻¹
  kon: 300000 M⁻¹ s⁻¹
[10]
  Kd: 4 to 6 nM
[11]
  fold loss in affinity against wild-type: ~3 fold
